Measured values taken from the supplement of paper PMC10724198.
± gives the standard deviation of the averaged measurements.

system: Saccharomyces cerevisiae; experiment: protein stability index of tFT-peptide fusion (C-terminal peptide) (PSI (0-1 scale)); higher = more stable (slower turnover); conditions: genetic background: wild type; temperature: 30 C
Method: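 Multiplexed protein stability (MPS) profiling in S. cerevisiae. Random 12-aa peptides (tFT-X12 library) are fused to the C-terminus of a sfGFP-mCherry tandem fluorescent timer, after mCherry and a GGGS linker. Cells are FACS-sorted into 8 mCherry/sfGFP bins and deep-sequenced. The protein stability index (PSI) is the read-weighted bin average, scaled from 0 (unstable) to 1 (stable). Only peptides with >10 reads are reported; cells were grown at 30 °C in SC-His with glucose.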
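Note: PSI is a weighted mean of sequencing reads over stability bins, variants kept only with over 10 reads, mCherry proximal and sfGFP distal, peptide attached via GGGS linker.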

Point of comparison: LRKVIGVSFCLA, protein stability index 0.542 ± 0.049. Against it:
- GIKKNKIKKKKI — within error, 0.624 ± 0.054
- AVISDVSLKPNF — within error, 0.673 ± 0.082
- LLFRCGARSAGG — higher, 0.676 ± 0.022
- LLRDRRQETILK — within error, 0.623 ± 0.092
- RRCGTERVKARE — higher, 0.766 ± 0.023
- NSESVRLGLGNE — higher, 0.705 ± 0.054
- KSPSTRATTHTY — higher, 0.678 ± 0.028
- QCLSIDARNGVT — within error, 0.668 ± 0.095
- KNNSKKRKLKPR — within error, 0.718 ± 0.14
- SCARARFAPHHS — higher, 0.734 ± 0.0092
- HRVRVRVYTCGF — within error, 0.634 ± 0.05
- AGCGGIWGVWVL — higher, 0.701 ± 0.072
- PPSQLPPPPASD — within error, 0.746 ± 0.2
- VGRENNENREEE — higher, 0.629 ± 0.021
- GFSRLTPDQRQK — higher, 0.7373 ± 0.0063
- SKEKKRPDNKTF — higher, 0.71 ± 0.048
- KMVTRKKNEEKD — higher, 0.6328 ± 0.0029
- NQAWYFVRLAGD — higher, 0.776 ± 0.022
- PAHSLPPPPPPP — higher, 0.702 ± 0.041
- QKFKHQNKLQSE — higher, 0.6803 ± 0.0061
- VELEPPVCVFLL — higher, 0.6391 ± 0.0017
- ICFGCLSWAGSW — within error, 0.554 ± 0.057
- PRGPPTPPLTSP — higher, 0.669 ± 0.043
- DEFCSHSLAGSS — higher, 0.649 ± 0.024
- GGGGGASMSGTP — higher, 0.687 ± 0.017
- PDRPVISLLLPS — within error, 0.646 ± 0.079
- RRLQGKWIWQNH — higher, 0.731 ± 0.055
- GFVVGVGIVSWG — higher, 0.6108 ± 0.0029
- PPPPLPRPPPPP — within error, 0.615 ± 0.061
- SLSERPKFSIYV — higher, 0.656 ± 0.049
- RGRRFMRGEVGG — higher, 0.6528 ± 0.0055
- LLTSCLLSCCFR — higher, 0.671 ± 0.027
- PKWSVTPVAANL — higher, 0.695 ± 0.048
- EGRAAETFVCAI — higher, 0.6429 ± 0.0055
- ERLLMLSGLRRA — higher, 0.779 ± 0.1
- VGVSLVLPDWDV — higher, 0.693 ± 0.053
- ASFLRPQMSLPF — higher, 0.618 ± 0.0095
- AGVPCLSVPPLG — higher, 0.683 ± 0.031
- KQRENMCRCARE — higher, 0.712 ± 0.074
- LCPLPPPTVPLP — higher, 0.742 ± 0.02
- SLSVPTTLFLFS — higher, 0.7 ± 0.017
- LLSASPASLSFL — higher, 0.706 ± 0.054
- KGIGWSSDGGMG — higher, 0.67 ± 0.02
- FFSHSAPAPFPL — higher, 0.692 ± 0.017
- PPPPPAPPALPP — higher, 0.6734 ± 0.001
- VWGERPRFGGWG — higher, 0.691 ± 0.038
- LRFRTVTRSGLR — within error, 0.626 ± 0.048
- DGLGLLVGAGVG — within error, 0.623 ± 0.085
- FSGGCSVHGLIS — within error, 0.612 ± 0.071
- ARFFPLPIPPRS — higher, 0.758 ± 0.078
- SLLPAPTPCPPP — higher, 0.701 ± 0.033
- LTYVQPTKGTLG — higher, 0.654 ± 0.05
- PSASYLPCRSKL — higher, 0.7474 ± 0.0046
- CSVCPGYLFGCA — within error, 0.601 ± 0.025
- CRSLSAPLPGSF — higher, 0.657 ± 0.021
- PPALPRFPACTT — higher, 0.714 ± 0.056
- DRGGDVGRCAGF — higher, 0.677 ± 0.011
- PQLLGWCVGPCR — higher, 0.694 ± 0.024
- PIFVCPFPGSLV — higher, 0.683 ± 0.065
- LTILRSPLPSLS — higher, 0.701 ± 0.019
- NGTLQKGGLRRQ — higher, 0.6547 ± 0.00088
- LFGNPVLSYFVI — within error, 0.5549 ± 0.0053
- SCLPPSRPSSAL — higher, 0.629 ± 0.019
- WGGGRGTAVVGV — higher, 0.657 ± 0.028
- SLCPRVCSERVP — higher, 0.722 ± 0.031
- GKINPKMEIWIE — higher, 0.7011 ± 0.0049
- GSDHIRQRNRME — higher, 0.716 ± 0.025
- GSNLQWNSKREE — higher, 0.6165 ± 0.0016
- LKKSYSTPFTHY — higher, 0.69 ± 0.048
- LHRTKHLRKGHK — higher, 0.6905 ± 0.0033
- VVFTTLRHPFRG — higher, 0.699 ± 0.027
- ALQVKWRGCLRF — higher, 0.733 ± 0.099
- SGPSIPCFLYSS — higher, 0.698 ± 0.013
- VGVGWWVGLWGL — higher, 0.693 ± 0.011
- GGGGVGTGCQRR — higher, 0.668 ± 0.037
- PPELHTIRARQI — within error, 0.58 ± 0.082
- GLVAVRARGSRA — within error, 0.663 ± 0.094
- QGAINSKRRPDQ — within error, 0.603 ± 0.045
- VSGLRRLVAFAR — within error, 0.518 ± 0.0061
- FCVFVGSSLVGF — higher, 0.659 ± 0.019
- ECGRWLGRGVRG — higher, 0.735 ± 0.045
- YRARRRPPPSPP — higher, 0.682 ± 0.045
- RPHTSPPPRHLY — higher, 0.61 ± 0.016
- PPPRTPGCPIPP — within error, 0.5737 ± 0.0032
- LPLYSFSVDFSF — within error, 0.576 ± 0.0059
- VLSSPPVPAPRP — higher, 0.701 ± 0.051
- NVLIISEQNHEP — higher, 0.748 ± 0.047
- MFGCGSRGSGVV — higher, 0.695 ± 0.093
- GCWAFGWLLQYS — within error, 0.574 ± 0.014
- AVLPFFPCFSAF — higher, 0.69 ± 0.038
- IKVRGEQAEEAE — higher, 0.684 ± 0.04
- ELHEETEKSKYR — higher, 0.74 ± 0.11
- PRSSVPATPHRR — higher, 0.72 ± 0.031
- EEQKKIRKRPEK — higher, 0.69686 ± 0.00066
- GSPSRKGQSRTG — higher, 0.698 ± 0.012
- MRWVISEDPGFR — higher, 0.695 ± 0.018
- PSRRPPPPPFLP — higher, 0.7 ± 0.036
